Laboratory results: the Immune Epitope Database (IEDB)

Experiments:
HLA-B*58:01 [1] = assay: IEDB peptide-MHC binding, purified MHC/competitive/radioactivity; filed as Kd, often an IC50 or EC50 that approximates it; ≥ and ≤ were set here for values at or beyond the usual limits of such assays
HLA-B*57:01 [2] = assay: as above
HLA-A*32:01 = assay: as above; conditions: source organism: Dengue virus 4 Philippines/H241/1956
HLA-B*83:01 = assay: IEDB peptide-MHC binding, purified MHC/competitive/fluorescence; filed as Kd, often an IC50 or EC50 that approximates it; ≥ and ≤ were set here for values at or beyond the usual limits of such assays; conditions: source organism: Mycobacterium tuberculosis H37Rv
HLA-B*45:06 = assay: as above; conditions: source organism: Mycobacterium tuberculosis H37Rv
HLA-B*15:42 = assay: as above; conditions: source organism: Mycobacterium tuberculosis H37Rv
HLA-B*58:01 [3] = assay: IEDB peptide-MHC binding, purified MHC/direct/fluorescence; filed as Kd, often an IC50 or EC50 that approximates it; ≥ and ≤ were set here for values at or beyond the usual limits of such assays; conditions: source organism: Reston ebolavirus - Reston
HLA-A*24:03 [4] = assay: as above; conditions: source organism: Reston ebolavirus
HLA-B*57:01 [5] = assay: as above; conditions: source organism: Reston ebolavirus - Reston
HLA-B*44:02 = assay: as above; conditions: source organism: Reston ebolavirus - Reston
HLA-A*02:12 [6] = assay: as above; conditions: source organism: Reston ebolavirus
HLA-B*39:01 [7] = assay: as above; conditions: source organism: Reston ebolavirus - Reston
HLA-A*01:01 = assay: as above; conditions: source organism: Reston ebolavirus - Reston
HLA-A*29:02 = assay: as above; conditions: source organism: Reston ebolavirus - Reston
HLA-A*23:01 = assay: as above; conditions: source organism: Reston ebolavirus
HLA-B*18:01 [8] = assay: as above; conditions: source organism: Reston ebolavirus - Reston
HLA-B*46:01 [9] = assay: as above; conditions: source organism: Reston ebolavirus - Reston
HLA-B*07:02 = assay: as above; conditions: source organism: Reston ebolavirus - Reston
HLA-A*31:01 = assay: as above; conditions: source organism: Reston ebolavirus - Reston
HLA-A*68:02 [10] = assay: as above; conditions: source organism: Reston ebolavirus
HLA-B*27:05 = assay: as above; conditions: source organism: Reston ebolavirus - Reston
HLA-B*40:01 = assay: as above; conditions: source organism: Reston ebolavirus - Reston
HLA-A*02:01 [11] = assay: as above; conditions: source organism: Reston ebolavirus - Reston
HLA-B*48:01 = assay: as above; conditions: source organism: Reston ebolavirus - Reston
HLA-A*03:01 [12] = assay: as above; conditions: source organism: Reston ebolavirus - Reston
HLA-A*02:11 = assay: as above; conditions: source organism: Reston ebolavirus
HLA-B*15:01 [13] = assay: as above; conditions: source organism: Reston ebolavirus - Reston
HLA-A*69:01 [14] = assay: as above; conditions: source organism: Reston ebolavirus - Reston
HLA-B*51:01 = assay: IEDB peptide-MHC binding, purified MHC/competitive/fluorescence; filed as Kd, often an IC50 or EC50 that approximates it; ≥ and ≤ were set here for values at or beyond the usual limits of such assays
HLA-A*26:01 = assay: as above
HLA-B*27:03 = assay: as above
HLA-A*24:03 [15] = assay: as above
HLA-B*57:01 [16] = assay: as above
HLA-A*02:12 [17] = assay: as above
HLA-B*39:01 [18] = assay: as above
HLA-B*18:01 [19] = assay: as above
HLA-A*02:01 [20] = assay: as above
HLA-A*03:01 [21] = assay: as above
HLA-B*15:01 [22] = assay: as above; conditions: source organism: Vibrio vulnificus CMCP6
HLA-A*02:19 = assay: as above
HLA-B*15:17 = assay: as above; conditions: source organism: Escherichia coli str. K-12 substr. W3110
HLA-B*46:01 [23] = assay: as above; conditions: source organism: Escherichia coli str. K-12 substr. W3110
HLA-A*68:02 [24] = assay: as above; conditions: source organism: Escherichia coli str. K-12 substr. W3110
HLA-A*69:01 [25] = assay: as above; conditions: source organism: Escherichia coli str. K-12 substr. W3110
HLA-C*15:02 = assay: IEDB peptide-MHC binding, purified MHC/direct/fluorescence; filed as Kd, often an IC50 or EC50 that approximates it; ≥ and ≤ were set here for values at or beyond the usual limits of such assays; conditions: source organism: Bacillus cereus G9241
HLA-A*02:03 = assay: IEDB peptide-MHC binding, purified MHC/competitive/fluorescence; filed as Kd, often an IC50 or EC50 that approximates it; ≥ and ≤ were set here for values at or beyond the usual limits of such assays; conditions: source organism: Bacillus cereus G9241
[26] = source organism: Dengue virus 4 Philippines/H241/1956
[27] = source organism: Dengue virus 1 Brazil/97-11/1997
[28] = source organism: Reston ebolavirus
[29] = source organism: Dengue virus 2 Jamaica/1409/1983
[30] = source organism: Vibrio vulnificus CMCP6
[31] = source organism: Escherichia coli str. K-12 substr. W3110
[32] = source organism: Bacillus cereus G9241

**Q.** Which Kd (HLA-B*58:01 [1]; [26]) does the source give for RSWNTGFDW here?
**A.** 0.0179 µM

**Q.** And the Kd (HLA-B*57:01 [2]; [26])?
**A.** 0.0138 µM

**Q.** And the Kd (HLA-A*32:01)?
**A.** 0.0447 µM

**Q.** For FPRIGTAVF, which Kd (HLA-B*83:01) is on record?
**A.** 8.31 µM

**Q.** What about the Kd (HLA-B*45:06) of the same sequence?
**A.** ≥ 5 µM

**Q.** And the Kd (HLA-B*15:42)?
**A.** ≥ 5 µM

**Q.** How did the Kd (HLA-B*58:01 [1]; [27]) turn out when KSYAQMWQL was run?
**A.** 0.00783 µM

**Q.** What about the Kd (HLA-B*57:01 [2]; [27]) of the same sequence?
**A.** 0.00198 µM

**Q.** With KHDFIDNPL as the sequence, how does the Kd (HLA-B*58:01 [3]) read?
**A.** ≥ 20 µM

**Q.** And the Kd (HLA-A*24:03 [4])?
**A.** ≥ 20 µM

**Q.** What about the Kd (HLA-B*57:01 [5]) of the same sequence?
**A.** ≥ 20 µM

**Q.** What about the Kd (HLA-B*44:02) of the same sequence?
**A.** ≥ 20 µM

**Q.** What about the Kd (HLA-A*02:12 [6]) of the same sequence?
**A.** ≥ 20 µM

**Q.** What about the Kd (HLA-B*39:01 [7]) of the same sequence?
**A.** 4.89 µM

**Q.** What about the Kd (HLA-A*01:01) of the same sequence?
**A.** ≥ 20 µM

**Q.** What about the Kd (HLA-A*29:02) of the same sequence?
**A.** ≥ 20 µM

**Q.** And the Kd (HLA-A*23:01)?
**A.** ≥ 20 µM

**Q.** What about the Kd (HLA-B*18:01 [8]) of the same sequence?
**A.** ≥ 20 µM

**Q.** What about the Kd (HLA-B*46:01 [9]) of the same sequence?
**A.** ≥ 20 µM

**Q.** What about the Kd (HLA-B*07:02) of the same sequence?
**A.** ≥ 20 µM

**Q.** What about the Kd (HLA-A*31:01) of the same sequence?
**A.** ≥ 20 µM

**Q.** What about the Kd (HLA-A*68:02 [10]) of the same sequence?
**A.** ≥ 20 µM

**Q.** And the Kd (HLA-B*27:05)?
**A.** ≥ 20 µM

**Q.** And the Kd (HLA-B*40:01)?
**A.** ≥ 20 µM

**Q.** What about the Kd (HLA-A*02:01 [11]) of the same sequence?
**A.** ≥ 20 µM

**Q.** And the Kd (HLA-B*48:01)?
**A.** ≥ 20 µM

**Q.** And the Kd (HLA-A*03:01 [12])?
**A.** ≥ 20 µM

**Q.** What about the Kd (HLA-A*02:11) of the same sequence?
**A.** ≥ 20 µM

**Q.** And the Kd (HLA-B*15:01 [13])?
**A.** ≥ 20 µM

**Q.** What about the Kd (HLA-A*69:01 [14]) of the same sequence?
**A.** ≥ 20 µM

**Q.** What about the Kd (HLA-B*51:01; [28]) of the same sequence?
**A.** ≥ 20 µM

**Q.** And the Kd (HLA-A*26:01; [28])?
**A.** ≥ 20 µM

**Q.** What about the Kd (HLA-B*27:03; [28]) of the same sequence?
**A.** ≥ 20 µM

**Q.** Which results are given for ASSLLKNDIP?
**A.** Kd (HLA-B*58:01 [1]; [29]): 2.1 µM; Kd (HLA-B*57:01 [2]; [29]): 8.58 µM

**Q.** Which results are given for LMLHQQYNQ?
**A.** Kd (HLA-A*24:03 [15]; [30]): ≥ 20 µM; Kd (HLA-B*51:01; [30]): ≥ 20 µM; Kd (HLA-B*57:01 [16]; [30]): ≥ 20 µM; Kd (HLA-A*26:01; [30]): ≥ 20 µM; Kd (HLA-A*02:12 [17]; [30]): 0.186 µM; Kd (HLA-B*39:01 [18]; [30]): ≥ 20 µM; Kd (HLA-B*18:01 [19]; [30]): ≥ 20 µM; Kd (HLA-A*02:01 [20]; [30]): 0.191 µM; Kd (HLA-A*03:01 [21]; [30]): ≥ 20 µM; Kd (HLA-B*15:01 [22]): ≥ 20 µM; Kd (HLA-A*02:19; [30]): ≥ 20 µM; Kd (HLA-B*27:03; [30]): ≥ 20 µM

**Q.** What does the source list for VASGLLWVAE?
**A.** Kd (HLA-B*58:01 [1]; [26]): 0.0754 µM; Kd (HLA-B*57:01 [2]; [26]): ≥ 70.4 µM

**Q.** What does the source list for ASSALLWMAS?
**A.** Kd (HLA-B*58:01 [1]; [27]): 17 µM; Kd (HLA-B*57:01 [2]; [27]): 17.1 µM

**Q.** For IQFDWYPTS, which Kd (HLA-A*24:03 [15]; [31]) is on record?
**A.** ≥ 20 µM

**Q.** What about the Kd (HLA-B*51:01; [31]) of the same sequence?
**A.** ≥ 20 µM

**Q.** And the Kd (HLA-B*57:01 [16]; [31])?
**A.** ≥ 20 µM

**Q.** And the Kd (HLA-A*26:01; [31])?
**A.** ≥ 20 µM

**Q.** What about the Kd (HLA-A*02:12 [17]; [31]) of the same sequence?
**A.** 0.624 µM

**Q.** And the Kd (HLA-B*39:01 [18]; [31])?
**A.** ≥ 20 µM

**Q.** What about the Kd (HLA-B*15:17) of the same sequence?
**A.** ≥ 20 µM

**Q.** What about the Kd (HLA-B*18:01 [19]; [31]) of the same sequence?
**A.** ≥ 20 µM

**Q.** And the Kd (HLA-B*46:01 [23])?
**A.** ≥ 20 µM

**Q.** And the Kd (HLA-A*68:02 [24])?
**A.** ≥ 20 µM

**Q.** And the Kd (HLA-A*02:01 [20]; [31])?
**A.** ≥ 20 µM

**Q.** What about the Kd (HLA-A*03:01 [21]; [31]) of the same sequence?
**A.** ≥ 20 µM

**Q.** And the Kd (HLA-A*02:19; [31])?
**A.** ≥ 20 µM

**Q.** What about the Kd (HLA-B*27:03; [31]) of the same sequence?
**A.** ≥ 20 µM

**Q.** What about the Kd (HLA-A*69:01 [25]) of the same sequence?
**A.** ≥ 20 µM

**Q.** For TAAVLMLVAH, which Kd (HLA-B*58:01 [1]; [27]) is on record?
**A.** 5.54 µM

**Q.** Which results are given for ITNPFFYQM?
**A.** Kd (HLA-C*15:02): 0.056 µM; Kd (HLA-A*02:03): ≥ 20 µM; Kd (HLA-B*57:01 [16]; [32]): 0.27 µM; Kd (HLA-A*26:01; [32]): ≥ 20 µM; Kd (HLA-B*39:01 [18]; [32]): ≥ 20 µM; Kd (HLA-B*18:01 [19]; [32]): ≥ 20 µM; Kd (HLA-A*03:01 [21]; [32]): ≥ 20 µM; Kd (HLA-B*27:03; [32]): ≥ 20 µM

**Q.** KAINVLRGF was tested. Which Kd (HLA-B*58:01 [1]; [29]) did it give?
**A.** 0.043 µM

**Q.** And the Kd (HLA-B*57:01 [2]; [29])?
**A.** 0.00343 µM
